Test results: the Immune Epitope Database (IEDB)
Values belong to the sequence of their own block, whether it stands above or below them.

How the values were obtained:
[1] = target: HLA-A*30:01; experiment: IEDB peptide-MHC binding, purified MHC/competitive/fluorescence; filed as Kd, often an IC50 or EC50 that approximates it; ≥ and ≤ were set here for values at or beyond the usual limits of such assays
[2] = target: HLA-A*68:23; experiment: as above; conditions: source organism: Brucella canis ATCC 23365
[3] = target: HLA-B*53:01; experiment: as above
[4] = target: HLA-B*83:01; experiment: as above; conditions: source organism: Brucella canis ATCC 23365
[5] = target: HLA-A*24:03; experiment: as above; conditions: source organism: Brucella canis ATCC 23365
[6] = target: HLA-B*15:42; experiment: as above; conditions: source organism: Brucella canis ATCC 23365
[7] = target: HLA-A*30:02; experiment: as above
[8] = target: HLA-A*23:01; experiment: as above
[9] = target: HLA-B*08:01; experiment: as above
[10] = target: HLA-B*44:02; experiment: as above
[11] = target: HLA-B*14:02; experiment: as above
[12] = target: HLA-B*39:01; experiment: as above; conditions: source organism: Brucella canis ATCC 23365
[13] = target: HLA-B*45:06; experiment: as above; conditions: source organism: Brucella canis ATCC 23365
[14] = target: HLA-B*40:01; experiment: as above
[15] = target: HLA-A*01:01; experiment: as above
[16] = target: HLA-A*11:01; experiment: as above
[17] = target: HLA-B*58:01; experiment: as above
[18] = target: HLA-B*07:02; experiment: as above
[19] = target: HLA-A*03:01; experiment: IEDB peptide-MHC binding, purified MHC/direct/fluorescence; filed as Kd, often an IC50 or EC50 that approximates it; ≥ and ≤ were set here for values at or beyond the usual limits of such assays
[20] = target: HLA-B*27:03; experiment: as above; conditions: source organism: Brucella suis 1330
[21] = target: HLA-B*46:01; experiment: as above; conditions: source organism: Brucella suis 1330
[22] = target: HLA-B*15:01; experiment: as above
[23] = target: HLA-B*18:01; experiment: as above
[24] = target: HLA-B*51:01; experiment: as above; conditions: source organism: Brucella suis 1330
[25] = target: HLA-B*57:01; experiment: as above
[26] = target: HLA-A*66:01; experiment: as above; conditions: source organism: Brucella suis 1330
[27] = target: HLA-A*68:02; experiment: as above
[28] = target: HLA-A*29:02; experiment: as above; conditions: source organism: Brucella suis 1330
[29] = target: HLA-A*30:02; experiment: IEDB peptide-MHC binding, purified MHC/competitive/radioactivity; filed as Kd, often an IC50 or EC50 that approximates it; ≥ and ≤ were set here for values at or beyond the usual limits of such assays; conditions: source organism: Dengue virus 1 Brazil/97-11/1997
[30] = target: HLA-B*58:01; experiment: as above; conditions: source organism: Dengue virus 1 Brazil/97-11/1997
[31] = target: HLA-A*80:01; experiment: IEDB peptide-MHC binding, purified MHC/direct/fluorescence; filed as Kd, often an IC50 or EC50 that approximates it; ≥ and ≤ were set here for values at or beyond the usual limits of such assays; conditions: source organism: Dengue virus 1 Singapore/S275/1990
[32] = target: HLA-A*26:03; experiment: as above; conditions: source organism: Bacillus cereus H3081.97
[33] = target: HLA-B*27:05; experiment: as above; conditions: source organism: Bacillus anthracis
[34] = target: HLA-B*48:01; experiment: as above; conditions: source organism: Bacillus anthracis
[35] = target: HLA-A*26:02; experiment: as above; conditions: source organism: Bacillus cereus H3081.97
[36] = target: HLA-A*69:01; experiment: as above; conditions: source organism: Bacillus anthracis
[37] = target: HLA-A*31:01; experiment: as above; conditions: source organism: Bacillus anthracis
[38] = target: HLA-B*73:01; experiment: as above; conditions: source organism: Bacillus anthracis
[39] = target: HLA-B*39:01; experiment: as above; conditions: source organism: Bacillus cereus H3081.97
[40] = target: HLA-B*15:17; experiment: as above; conditions: source organism: Bacillus anthracis
[41] = target: HLA-A*02:01; experiment: as above; conditions: source organism: Bacillus anthracis
[42] = target: HLA-A*01:01; experiment: as above; conditions: source organism: Bacillus anthracis
[43] = target: HLA-A*11:01; experiment: as above; conditions: source organism: Bacillus anthracis
[44] = target: HLA-B*58:01; experiment: as above; conditions: source organism: Bacillus anthracis
[45] = target: HLA-B*07:02; experiment: as above; conditions: source organism: Bacillus anthracis
[46] = target: HLA-B*27:05; experiment: IEDB peptide-MHC binding, purified MHC/competitive/fluorescence; filed as Kd, often an IC50 or EC50 that approximates it; ≥ and ≤ were set here for values at or beyond the usual limits of such assays; conditions: source organism: Escherichia coli 536
[47] = target: HLA-B*15:01; experiment: as above; conditions: source organism: Escherichia coli 536
[48] = target: HLA-A*66:01; experiment: as above; conditions: source organism: Escherichia coli 536
[49] = source organism: Brucella canis ATCC 23365
[50] = source organism: Brucella suis 1330
[51] = source organism: Bacillus anthracis
[52] = source organism: Escherichia coli 536

Sequence: ETVWPFFYA
Kd [1, 49]: ≥ 5 µM
Kd [2]: 0.0013 µM
Kd [3, 49]: ≥ 5 µM
Kd [4]: ≥ 5 µM
Kd [5]: ≥ 5 µM
Kd [6]: ≥ 5 µM
Kd [7, 49]: ≥ 5 µM
Kd [8, 49]: ≥ 5 µM
Kd [9, 49]: ≥ 5 µM
Kd [10, 49]: ≥ 5 µM
Kd [11, 49]: ≥ 5 µM
Kd [12]: ≥ 5 µM
Kd [13]: ≥ 5 µM
Kd [14, 49]: ≥ 5 µM
Kd [15, 49]: ≥ 5 µM
Kd [16, 49]: ≥ 5 µM
Kd [17, 49]: ≥ 5 µM
Kd [18, 49]: ≥ 5 µM
Kd [19, 50]: ≥ 20 µM
Kd [20]: ≥ 20 µM
Kd [21]: ≥ 20 µM
Kd [22, 50]: ≥ 20 µM
Kd [23, 50]: ≥ 20 µM
Kd [24]: ≥ 20 µM
Kd [25, 50]: ≥ 20 µM
Kd [26]: 0.101 µM
Kd [27, 50]: ≤ 0.001 µM
Kd [28]: ≥ 20 µM

Sequence: KSAAIDGEY
Kd [29]: 0.703 µM
Kd [30]: 0.00658 µM
Kd [31]: 0.0441 µM

Sequence: PRFGSCYFL
Kd [32]: ≥ 20 µM
Kd [19, 51]: ≥ 20 µM
Kd [33]: ≥ 20 µM
Kd [34]: ≥ 20 µM
Kd [35]: ≥ 20 µM
Kd [36]: ≥ 20 µM
Kd [22, 51]: ≥ 20 µM
Kd [23, 51]: ≥ 20 µM
Kd [37]: ≥ 20 µM
Kd [25, 51]: ≥ 20 µM
Kd [38]: ≥ 20 µM
Kd [39]: ≥ 20 µM
Kd [27, 51]: ≥ 20 µM
Kd [40]: ≥ 20 µM
Kd [41]: ≥ 20 µM
Kd [42]: ≥ 20 µM
Kd [43]: ≥ 20 µM
Kd [44]: ≥ 20 µM
Kd [45]: 2.72 µM

Kd [1, 52]: ≥ 5 µM
Kd [3, 52]: ≥ 5 µM
Kd [46]: ≥ 5 µM
Kd [7, 52]: ≥ 5 µM
Kd [47]: ≥ 5 µM
Kd [8, 52]: ≥ 5 µM
Kd [9, 52]: ≥ 5 µM
Kd [10, 52]: ≥ 5 µM
Kd [11, 52]: ≥ 5 µM
Kd [48]: ≥ 5 µM
Kd [14, 52]: ≥ 5 µM
Kd [15, 52]: ≥ 5 µM
Kd [16, 52]: ≥ 5 µM
Kd [17, 52]: ≥ 5 µM
Kd [18, 52]: ≥ 5 µM
Sequence: YQAENSTAE
